Earlier results as cited in publication PMC4755228.

Target: CD38 (Homo sapiens) (UniProt P28907)
Assay: BIAcore SPR

- Kd: 4.36 nM
Substance: daratumumab
